In one assay the target is T1, HA-tagged NDR1 wild type (human, UniProt Q15208 1-465).
T1 construct: also called HA-NDR1; HA-NDR
As to the kind of experiment: co-immunoprecipitation, summary of Example 8.

In another assay the target is T2, HA-NDR1 T74A (human, UniProt Q15208 1-465).
T2 construct: pCMV5_HA-NDR1 mutant expressed in COS-1 cells; also called T74A mutant
As to the kind of experiment: co-immunoprecipitation of myc-hMOB1 with HA-NDR, OA-treated COS-1 cells.

The target in assay [1] is T3, HA-NDR N-terminal point mutant, arginine 41 to alanine (human, UniProt Q15208 1-465).
T3 construct: also called arginine 41 mutant
T3 sequence (Q15208 other isoform, or with tags, fused parts or gaps mutant limits assumed): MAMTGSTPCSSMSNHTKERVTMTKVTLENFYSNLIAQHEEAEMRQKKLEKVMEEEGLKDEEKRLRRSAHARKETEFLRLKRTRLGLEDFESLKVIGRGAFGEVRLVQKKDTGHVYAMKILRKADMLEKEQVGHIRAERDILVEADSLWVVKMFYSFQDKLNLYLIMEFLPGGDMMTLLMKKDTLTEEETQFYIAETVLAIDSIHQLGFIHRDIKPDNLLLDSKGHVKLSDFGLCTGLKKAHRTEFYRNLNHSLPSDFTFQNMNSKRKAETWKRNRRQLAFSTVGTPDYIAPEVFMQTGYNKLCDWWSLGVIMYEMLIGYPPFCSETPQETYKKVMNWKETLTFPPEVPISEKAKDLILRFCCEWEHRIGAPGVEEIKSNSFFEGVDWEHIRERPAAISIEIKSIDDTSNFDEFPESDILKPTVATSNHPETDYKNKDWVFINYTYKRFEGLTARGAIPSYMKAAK
The assay is described as follows: co-immunoprecipitation of myc-hMOB1 with HA-NDR point mutants, OA-treated COS1 cells.

Assay [2] addresses T4, HA-NDR N-terminal point mutant, tyrosine 31 to alanine (human, UniProt Q15208 1-465).
T4 construct: also called tyrosine 31 mutant
Described as above.

For assay [3], the target named is T5, HA-NDR N-terminal point mutant, arginine 78 to alanine (human, UniProt Q15208 1-465).
T5 construct: also called arginine 78 mutant
T5 sequence (Q15208 other isoform, or with tags, fused parts or gaps mutant limits assumed): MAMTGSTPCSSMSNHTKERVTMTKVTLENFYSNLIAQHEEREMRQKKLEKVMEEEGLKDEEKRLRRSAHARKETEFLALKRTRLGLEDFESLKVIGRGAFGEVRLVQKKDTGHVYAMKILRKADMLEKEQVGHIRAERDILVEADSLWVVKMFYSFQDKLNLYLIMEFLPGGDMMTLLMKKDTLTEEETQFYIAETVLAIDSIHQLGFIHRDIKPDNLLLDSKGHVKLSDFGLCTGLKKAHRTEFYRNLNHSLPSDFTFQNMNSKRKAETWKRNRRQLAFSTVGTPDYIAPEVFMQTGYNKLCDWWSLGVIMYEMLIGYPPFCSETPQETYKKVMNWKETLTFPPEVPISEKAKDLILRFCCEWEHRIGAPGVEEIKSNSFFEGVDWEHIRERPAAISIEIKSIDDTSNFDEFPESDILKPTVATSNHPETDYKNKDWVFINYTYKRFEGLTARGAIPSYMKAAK
The description is as above.

T2 sequence (Q15208 whole entry T74A): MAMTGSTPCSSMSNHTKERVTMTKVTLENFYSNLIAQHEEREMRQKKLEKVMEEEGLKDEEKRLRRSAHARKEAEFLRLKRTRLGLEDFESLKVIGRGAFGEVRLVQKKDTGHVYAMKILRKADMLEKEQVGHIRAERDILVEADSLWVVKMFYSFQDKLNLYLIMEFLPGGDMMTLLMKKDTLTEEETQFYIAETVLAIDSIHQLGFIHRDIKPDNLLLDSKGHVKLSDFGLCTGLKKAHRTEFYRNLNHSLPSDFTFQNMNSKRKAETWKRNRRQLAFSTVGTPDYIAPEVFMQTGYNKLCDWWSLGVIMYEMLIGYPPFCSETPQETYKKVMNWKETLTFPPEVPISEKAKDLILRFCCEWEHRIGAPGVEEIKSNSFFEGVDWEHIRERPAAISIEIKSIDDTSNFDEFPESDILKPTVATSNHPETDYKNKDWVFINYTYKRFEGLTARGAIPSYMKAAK
T4 sequence (Q15208 other isoform, or with tags, fused parts or gaps mutant limits assumed): as the sequence (Q15208 whole entry T74A) above, with Y31A, A74T counted along it
T1 sequence (Q15208 whole entry): as the sequence (Q15208 whole entry T74A) above, with A74T counted along it

B1: myc-tagged hMOB1 (other, not shown: small tags and cut ends)
chain: MSFLFSSRSSKTFKPKKNIPEGSHQYELLKHAEATLGSGNLRQAVMLPEGEDLNEWIAVNTVDFFNQINMLYGTITEFCTEASCPVMSAGPRYEYHWADGTNIKKPIKCSAPKYIDYLMTWVQDQLDDETLFPSKIGVPFPKNFMSVAKTILKRLFRVYAHIYHQHFDSVMQLQEEAHLNTSFKHFIFFVQEFNLIDRRELAPLQELIEKLGSKDR
modifications: okadaic acid induced modification of MOB1 (not identified) in cells treated with okadaic acid
notes: also called myc-hMOB1; myc-mob1
On to B1, for which the binding result in the assay with HA-tagged NDR1 wild type is given as “binds”; in the assay with HA-NDR1 T74A it was “no binding”; in assay [1], “no binding”; in assay [2], “no binding”; in assay [3], “no binding”.

These data come from patent publication US20060172374A1 (Novartis, published 2006).
